In publication PMC7051184 (2020):

Molecular target: 6His-S-Importin β(1-876), full-length WT human importin β (human, UniProt Q14974 1-876)
Assay: FRET; displacement of importin β-bound Rango

6His-S-Importin β(1-876), full-length WT human importin β, sequence (Q14974 whole entry): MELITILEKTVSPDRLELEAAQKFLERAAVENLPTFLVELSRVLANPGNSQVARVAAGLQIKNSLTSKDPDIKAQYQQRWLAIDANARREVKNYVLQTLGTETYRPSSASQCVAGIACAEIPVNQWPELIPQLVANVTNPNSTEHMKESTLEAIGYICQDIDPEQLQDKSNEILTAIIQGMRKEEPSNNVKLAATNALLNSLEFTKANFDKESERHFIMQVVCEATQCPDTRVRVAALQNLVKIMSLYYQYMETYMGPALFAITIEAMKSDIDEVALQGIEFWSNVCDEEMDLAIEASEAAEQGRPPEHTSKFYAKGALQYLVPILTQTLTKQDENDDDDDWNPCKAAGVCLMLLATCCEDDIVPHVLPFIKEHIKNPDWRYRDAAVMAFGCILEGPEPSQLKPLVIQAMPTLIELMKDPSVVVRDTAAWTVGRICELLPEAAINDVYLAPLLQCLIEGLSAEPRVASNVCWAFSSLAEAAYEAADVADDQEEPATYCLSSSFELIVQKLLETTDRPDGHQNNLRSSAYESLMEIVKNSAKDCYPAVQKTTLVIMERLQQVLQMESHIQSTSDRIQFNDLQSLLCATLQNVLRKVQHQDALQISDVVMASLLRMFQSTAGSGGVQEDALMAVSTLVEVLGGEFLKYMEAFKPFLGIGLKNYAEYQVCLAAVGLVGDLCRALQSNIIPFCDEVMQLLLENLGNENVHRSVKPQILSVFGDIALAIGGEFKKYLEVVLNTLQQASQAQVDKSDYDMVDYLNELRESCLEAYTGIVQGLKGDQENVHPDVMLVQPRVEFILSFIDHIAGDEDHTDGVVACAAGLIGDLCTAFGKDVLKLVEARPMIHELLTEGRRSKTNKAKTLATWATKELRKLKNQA

PRPRPRPRPRPRPRPRPRPRKC gave a Kd of 8.2 nM.
